The target in this assay is UNC-49B GABA receptor subunit (UNC-49B.1 isoform) (C. elegans). In words: cell-based or functional assay.

Take “UNC-49B GABA receptor subunit (UNC-49B.1 isoform)”: the GABA concentration required to produce half-maximal channel activity (EC50), Xenopus oocytes injected with UNC-49B.1 mRNA, two-electrode voltage clamp was found to be 43.7 µM and the single main conductance state, single channel recordings in HEK-293 cells expressing UNC-49B alone is 37.5 pS.

For the substance UNC-49C GABA receptor subunit, the EC50 value for GABA, Xenopus oocytes injected with equal amounts of UNC-49B and UNC-49C RNA, two-electrode voltage clamp stood at 108 µM; the single main conductance state, single channel recordings in HEK-293 cells transfected with UNC-49B and UNC-49C turned out to be 30.9 pS.
